Experimental data reported in US20190016812A1 (AbbVie / Abbott, published 2019).
Where two headings read alike, the source gives them in different places.

How the values were obtained:
[1] = biological target: T1, human TNFSF9 (R&D Systems; #2295-4L-025/CF) (human, UniProt P41273 71-254, limits assumed); assay: MSD ELISA: TNFSF9 + 1 ug/mL antibody, binding to coated TNFRSF9
T1 construct: also called TNFSF9 (ligand); TNFSF9 ligand

[2] = biological target: T1, human TNFSF9 (R&D Systems; …); assay: as above; remark: listed apart in the source
[3] = biological target: T2, cynomolgus TNFSF9 (cTNFSF9) protein, soluble recombinant (cynomolgus); assay: SPR (Biacore)
T2 construct: extracellular domain; also called cynomolgus TNFSF9 protein

[4] = biological target: T3, hTNFSF9-His (monomeric human TNFSF9 extracellular domain with 9x-Histidine tag) (human, UniProt P41273 50-254); assay: SPR (Biacore)
T3 construct: also called hTNFSF9-His protein; monomeric hTNFSF9-His antigen

[5] = biological target: T4, cynomolgus TNFSF9 (cTNFSF9), full length, overexpressed on HEK293T cells (cynomolgus); assay: cell-based or functional assay
[6] = biological target: T5, human TNFSF9 (hTNFSF9), full length, overexpressed on HEK293T cells (human, UniProt P41273 1-254); assay: cell-based or functional assay
[7] = biological target: T4, cynomolgus TNFSF9 (cTNFSF9), full …; assay: cell-based or functional assay; remark: listed apart in the source
[8] = biological target: T5, human TNFSF9 (hTNFSF9), full length, …; assay: cell-based or functional assay; remark: listed apart in the source
[9] = biological target: T2, cynomolgus TNFSF9 (cTNFSF9) protein, …; assay: SPR (Biacore); remark: listed apart in the source
[10] = biological target: T3, hTNFSF9-His (monomeric human TNFSF9 …); assay: SPR (Biacore); remark: listed apart in the source

T1 sequence (P41273 71-254 limits assumed): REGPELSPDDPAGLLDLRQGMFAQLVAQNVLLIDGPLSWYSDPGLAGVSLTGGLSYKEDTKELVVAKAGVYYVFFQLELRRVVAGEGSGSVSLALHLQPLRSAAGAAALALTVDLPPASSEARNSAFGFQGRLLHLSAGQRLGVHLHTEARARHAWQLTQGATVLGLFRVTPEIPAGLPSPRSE
T3 sequence (P41273 other isoform, or with tags, fused parts or gaps): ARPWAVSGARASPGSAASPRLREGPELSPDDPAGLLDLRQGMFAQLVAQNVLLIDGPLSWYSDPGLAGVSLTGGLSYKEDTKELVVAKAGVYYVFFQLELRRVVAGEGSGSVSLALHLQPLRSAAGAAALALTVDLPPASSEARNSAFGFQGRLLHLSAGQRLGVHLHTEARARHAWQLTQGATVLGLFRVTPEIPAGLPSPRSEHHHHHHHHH

B1: SC113.153 (antibody, V domains shown)
VH: QVQLKQSGPGLVQPSQSLSITCTVSGFSLTSYGVHWVRQSPGKGLEWLGVIWSGGSTDDNAAFISRLSISKDNSKSQVFFKMNSLQADDTAIYYCARNYYYDGRYYAMDYWGQGTSVTVSS
VL: DIVLTQSPASLAVSLGQRATISCRASESVEYYGTSLMQWYQQKPGQPPKLLIYVASNVESGVPVRFSGSGSGTDFSLNIHPVEEDDIAMYFCQQSRKVPWTFGGGTKLEIK
notes: Murine hybridoma antibody
B1 was tested, and the “% inhibition of ligand receptor interaction” value (from here on “% inhibition”) [1] was -84%.

B2: SC113.148 (antibody, V domains shown)
VH: QVQLKQSGPGPVQPSQSLSITCTVSGFSLTSYGVHWVRQSPGKGLEWLGVIWSGGSTDDNAAFISRMSITKDNSKSQVFLKMNSLQADDTAKYYCARNYYYEGRYYVMDYWGQGTSVIVSS
VL: DIVLTQSPVSLAVSLGQRATISCRASESVEYYGTSLMQWYQQKPGQPPKLLIYAASNVESGVPARFSGSGSGTDFSLNIHPVEEDDIAMYFCQQSRKVPWTFGGGTKLEIK
In the case of B2, the “% inhibition” value [1] is reported as -63%.

B3: SC113.219 (antibody, V domains shown)
VH: QVQLKQSGAELVRPGASVKLSCRASGYTFTDFYINWVKQRPGQGLEWIARIYPGSGNTHYNENFKGKATLTAEKSSSTAYMQLSSLTSEDSAVYFCAREVWDAMDHWGQGTSVTVSS
VL: SIVMTQSPKSMSISVGERVTLSCKASENVGTYVSWYQQKPEQSPKLLIYGASNRYTGVPDRFTGSGSSAEFTLTISSVQAEDLADYYCGQSSSFPIFTFGTGAKLEIK
B3 was tested, and the “% inhibition” value [1] was -37%.

B4: SC113.121 (antibody, V domains shown)
VH: EVQLQQSGAELVKPGASVNLSCTASGFNIKDYYMHWMKQRPEQGLEWIGRIDPENGETRYAPKFQDKATITADTSSNTAYLQLRSLTSEDTAIYYCGRLDFYFDFWGQGTTLTVSS
VL: QIVLSQSPAILSASPGEKVTMTCRASSSVSYMHWYQQKPGSSPKPWIYATSNLASGVPARFSGSGSGTSYSLTISRVEAEDAATYYCQQWSSNPPTFGSGTKLEIK
With B4 the “% inhibition” value [2] was 98%.

B5: SC113.167 (antibody, V domains shown)
VH: EVQLQQSGAELVKPGASVKLSCTASGFNIKDYYMHWVKQRPEQGLYWIGRIDPEAGETRYAPNFQGKATITADTSSNTAYLQLRSLTSEDTAIYYCARLDFYFDSWGQGTTLTVSS
VL: QIVLSQSPAILSASPGEKVTMTCRASSSVSYMHWYQQKPGSSPKPWIYATSNLASGVPGRFSGSGSGTSYSLTISRVEAEDTATYYCQQWFTNPPTFGSGTKLEIK
In the case of B5, the “% inhibition” value [2] is reported as 89%.

B6: SC113.150 (antibody, V domains shown)
VH: EVQLQQSGAELVKPGASVKLSCTASGFNIKDYYLHWMKQRPEQGLEWIGRIDPENGETRYGPKFQGKATITADASSNTAYLQLRSLTSEDTAIYYCGRLDFYFDYWGQGTTLTVSS
VL: QIVLSQSPAILSASPGERVTMTCRASSSVNYIHWYQQKPGSSPKPWIYATSNLASGVPARFSGSGSGTSYSLTISRMEAEDAATYYCQQWSSNPPTFGSGTKLAIK
In the case of B6, the “% inhibition” value [2] is reported as 98%.

B7: SC113.57 (antibody, V domains shown)
VH: QVQLKQSGPGLVPPSQSLSISCTVSGFSLTTYGVHWVRQSPGKGLEWLGVIWSGGTTDDNAAFISRVSITKDNSKSQVFFKMNSLQADDTAIYYCAKNSYYGNLHYYTMDYWGQGTSVTVSS
VL: not shown
notes: Murine hybridoma antibody with kappa light chain; also called SC113.57 capture antibody
In the case of B7, the “% inhibition” value [1] is reported as -35%, the Kd [3] is reported as 4 nM and the Kd [4] is reported as 5 nM. For the same binder, the “% live cells, Fab-saporin killing, 250 pM antibody” value (shortened to “% live cells, Fab-saporin killing”) [5] was 9.3% and the “% live cells, Fab-saporin killing” value [6] was 11.6%.

B8: SC113.36 (antibody, mouse IgG1, V domains shown)
VH: QVQLKESGPDLVAPSQSLSITCTVSGFSLTSYGVHWVRQPPGKGLEWLGVIWAGGFTNYNSALMSRLSISKDNSKSQVFLKMSSLQTDDTAMYYCVREKDYRYSHYFDYWGQGTTLTVSS
VL: DIVMSQSPSSLAVSVGEKVTLSCKSSLSLLYSSNQENYLAWYQQKPGQSPKLLIYWASTRESGVPDRFTGSGSGTDFTLTISSVKAEDLAVYYCQQYYSYPRTFGGGTKLEIK
notes: mouse IgG1
For B8, the “% inhibition” value [1] was 23%, the “% live cells, Fab-saporin killing” value [7] was 102% and the “% live cells, Fab-saporin killing” value [8] was 17.8%. For the same binder, the Kd [9] was 12 nM and the Kd [10] was 3 nM.

B9: SC113.51 (antibody, mouse IgG2a, V domains shown)
VH: QVQLKESGPDLVAPSQSLSIICTVSGFSLTSYGVHWVRQSPGKGLEWLGVIWAGGLTNYNSALMSRLSISKDNSKSQVFLKMNSLQTDDTAMYYCVREKDYRYSYYFDYWGQGTTLTVSS
VL: DIVMSQSPSSLAVSVGEKVTLSCKSSLSLLYSSNQENYLAWYQQKPGQSPKLLIYWASTRESGVPDRFTGSGSGTDFTLTISSVKAEDLAVYYCQQYYSYPRTFGGGTKLEIK
notes: mouse IgG2a
For B9, the “% inhibition” value [2] was 99%, the Kd [3] was 28 nM and the Kd [4] was 3 nM. For the same binder, the “% live cells, Fab-saporin killing” value [5] was 108% and the “% live cells, Fab-saporin killing” value [6] was 15.5%.

B10: SC113.46 (antibody, V domains shown)
VH: QIQLVQSGPELKKPGETVKISCKASGYSFTNYGMNWVKQTPRKGLKWVGWINTYTGETTYADDFKGRFAFSLETSASTAYLQINNLKNEDMATYFCARIYGYGWFAYWGQGTLVTVSA
VL: DIQMTQSPSSLSASLGERVSLTCRASQEISGYLSWLQQKPDGTIKRLIYAASTLDSGAPKRFSGSRSGSDYSLIISSLESEDFADYYCLQYSSYPYTFGGGTKLEIK
notes: mouse antibody, isotype N/A
For B10, the “% live cells, Fab-saporin killing” value [7] was 31.3%, the “% live cells, Fab-saporin killing” value [8] was 28.3% and the Kd [9] was 16 nM. The Kd [10] was 4 nM.

B11: SC113.133 (antibody, V domains shown)
VH: QVQLQQSGAELVRPGSSVKISCKASGYAFSSSWINWVKQRPGQGLEWIGQIYPGDGDTNYNGKFKGKATLTADKSSNTAYLQLNSLTSEDSAVYFCARTPIFAYWGQGTLVTVSA
VL: DIQMTQSPSSLSASLGERVSLTCRASQEISGYLTWLQQKPDGTIKRLIYAASILDSGVPKRFSGSRSGSDYSLTISSLESEDFADYYCLQYASYPWTFGGGTKLEIK
B11 was tested, and the “% inhibition” value [2] was 66%.

B12: huSC113.57 (antibody, V domains shown)
VH: QVTLKESGPVLVKPTETLTLTCTVSGFSLSTYGVHWIRQPPGKALEWLAVIWSGGTTDDNAAFISRVTISKDNSKSQVVLTMTNMDPVDTATYYCARNSYYGNLHYYTMDYWGQGTTVTVSS
VL: EIVLTQSPATLSLSPGERATLSCRASESVDSYGISFLNWYQQKPGQAPRLLIYAASNQGSGIPARFSGSGSGTDFTLTISSLEPEDFAVYYCQQSKEVPWTFGGGTKVEIK
notes: also called hSC113.57 (humanized SC113.57)
In the case of B12, the “% inhibition” value [1] is reported as -38%.

B13: SC113.61 (antibody, V domains shown)
VH: EVQLVESGGDLVKPGGSLKLSCAASGFTFSNYGMSWVRQTPDKRLEWVATISNGGISTYYPDSVKGRFTISRDNAKNTLYLQMNSLKSEDTAMYYCVRPGRGYFDYWGQGTTLTVSS
VL: DIVMTQAAPSVPVTPGESVSISCRSNKSLLHSDGNTYLYWFLQRPGQSPQLLIYRMSNLASGVPDRFSGSGSGTAFTLRISRVEAEDVGVYYCMQHLEYPWTFGGGTKLEIK
modifications: MSD SULFO-TAG NHS Ester label on amines (sites not given)
notes: Murine hybridoma antibody, sulfo-tagged for use as detection antibody; The label may sit on either chain; also called SC113.61 detection antibody
B13 was tested, and the “% inhibition” value [2] was 48%, the Kd [3] was 11 nM and the Kd [4] was 6 nM. The “% live cells, Fab-saporin killing” value [5] was 29% and the “% live cells, Fab-saporin killing” value [6] was 23%.

B14: SC113.70 (antibody, mouse IgG2b, V domains shown)
VH: DVQLQESGPDLVKPSQSLSLTCTVTGYSITSGYTWHWIRQFPGNKLEWMGYIIYSGGTNYNPSLKSRISITRDTSKNQFFLQLNSVTPEDTATYYCASLLRPLDYWGQGTTLTVSS
VL: DIVMTQAAPSVPVTPGESVSISCRSSKSLLHSNGDTFLYWFLQRPGQSPQLLIYRMSNLASGVPDRFSGSGSGTAFTLRISRVEAEDVGVYYCMQHLEYPFTFGAGTKLELK
notes: mouse IgG2b
In the case of B14, the “% inhibition” value [1] is reported as 46%, the Kd [3] is reported as 81 nM and the Kd [4] is reported as 11 nM. For the same binder, the “% live cells, Fab-saporin killing” value [5] was 101% and the “% live cells, Fab-saporin killing” value [6] was 95.1%.

B15: SC113.201 (antibody, V domains shown)
VH: QVQLKQSGPSLVQPSQSLSITCTVSGFSLTNYGVHWVRQSPGKGLEWLGVIWRGGGTDSNAAFMSRLTITKDNSKSQVFFKMSSLQADDTAIYYCAKNTRYDARGYYAMDYWGQGTSVTVSS
VL: not shown
For B15, the “% inhibition” value [1] was -66%.
